For one substance, FGFR signaling (phosphorylation of downstream ERK and AKT pathways, Western blot, HEK293 cells) results are on record in patent US20150111821A1.

This assay addresses FGF receptors. In words: cell-based or functional assay.

The substance “FGF1^ΔNT (10-140αα) (SEQ ID NO: 7), N-terminally truncated FGF1 (from UniProt P05230 25-155) (ligand; the values are: fold reduction in signaling)” had an FGFR signaling (phosphorylation of downstream ERK and AKT pathways, Western blot, HEK293 cells) of 100 fold.
